Earlier results in US20130079279A1, “PHARMACEUTICAL COMPOSITION COMPRISING AVE0010 AND INSULIN GLARGINE” (SANOFI-AVENTIS DEUTSCHLAND GMBH, priority 2010, published 2013).

System: anti-lixisenatide antibodies
Conditions: previous study ACT6011; end of a two week period after repeated injections

For “desPro^36Exendin-4(1-39)-Lys6-NH2 [lixisenatide]”, the Anti-lixisenatide antibodies is given as “not detected”.
